In the supplement of paper PMC11780869:

System: Bacillus subtilis
Assay: cleaved RNA product abundance (RNA/gDNA barcode ratio) relative to median wild-type variant (ratio to wild type); higher = more accumulation of the downstream cleavage product
Outline: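 Cleaved product abundance is expressed as the RNA:gDNA barcode ratio per construct, scaled to the median construct carrying the unmutated site. The constructs were barcoded, mutagenized RNase Y cleavage-site windows in truncated aprE or tetM reporter mRNAs integrated into the B. subtilis chromosome. Cultures grew in LB at 37°C from OD600 0.0003 to 0.3 before cleaved RNA was gel-selected and barcode-sequenced.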

[1] = experiment (reporter, strain, medium): exp 2b: truncated aprE reporter, strain BJT200, cleavage site: cggR-gapA (positions -7 to +36 mutated)
[2] = experiment (reporter, strain, medium): exp 4a: truncated aprE reporter, strain BJT201 with 2% xylose (RNase J1 expressed), cleavage site: cggR-gapA (positions -7 to +36 mutated)
[3] = experiment (reporter, strain, medium): exp 8a: truncated aprE reporter, strain BJT201 with 2% xylose (RNase J1 expressed), cleavage site: glnRA (positions -5 to +31 mutated)
[4] = experiment (reporter, strain, medium): exp 6: tetM reporter, strain 168, cleavage site: cggR-gapA (positions -7 to +36 mutated)

Sequence	cleaved RNA product abundance [2]	cleaved RNA product abundance [3]	further results
ACAGACGAAGGAGCCGCAAAGAAGTCATTAAGAGATGAATAATCCCTCAATATAAATATCTCTCACTTATTTAAA	0.137	–	cleaved RNA product abundance [1]: 0.108
ACAGACGAAGGAGCCGCAAAGAAGTAATTAAGTGATGAATAATCCCTCAATATAAATATCTCTCACTTATTTAAA	0.0789	–	–
CGACATGTCCCGCTTCTTTCATTAATCCGTTAGCAACTGTTTTGATATTTACATTTACCTTTTAAGAGGAGGAAT	–	0.18	–
CGACATGTCCCGCTTCTTTCATTAATCCGTTAGCAACTGTTTCACTATATACATTTACCTTTTAAGAGGAGGAAT	–	0.694	–
ACAGACGAAGGAGCCGCAAATAAGTTATTAAGGGATGTATAATCCCTCAATATAAATATCTCTCACTTATTTAAA	0.901	–	–
CGACATGTCCCGCTTCTTTCATTAATACGTTAGCAACTGTTTTGCTATATAGATTTACCTTTTAAGAGGAGGAAT	–	0.956	–
ACAGACGAAGGAGCCGCAAAGAAGTTATTAAGGGATAAATAATCCCTGAATATAAATATCTCTCACTTATTTAAA	0.734	–	–
CGACATGTCCCGCTTCTTTCATTAATCCGTGAGCAACTGTTTTGCTATATAAATTTACCTTTTAAGAGGAGGAAT	–	0.357	–
ACAGACGAAGGAGCCGCAAAGAAGTTATTAAGGGATGAAGAATCCCCCAATATAAATATCTCTCACTTATTTAAA	0.183	–	–
ACAGACGAAGGAGCCGCGAAGAAGTGATTAAGGGATGAATAATCCCTCAATATAAATATCTCTCACTTATTTAAA	0.347	–	–
CGACATGTCCCGCTTCTTTCATTACTCCGTTATCAACTGTTTTGCTATATACATTTACCTTTTAAGAGGAGGAAT	–	0.227	–
CGACATGTCCCGCTTCTTTCATTAATCCGTTAGCAACTGTATTGCTAAATACATTTACCTTTTAAGAGGAGGAAT	–	0.438	–
CGACATGTCCCGCTTCTTTCATTAATCCCTTAGCAACTGTTTTGCTATATACATTTACTTTTTAAGAGGAGGAAT	–	0.19	–
ACAGACGAAGGAGCCGCAAAAAAGTTATTAAGGGATGAATAACCCCTCAATATAAATATCTCTCACTTATTTAAA	0.458	–	cleaved RNA product abundance [1]: 0.455
CGACATGTCCCGCTTCTTTCATTAATCCGTTAGCAACTGTTTTCCTATATATATTTACCTTTTAAGAGGAGGAAT	–	0.505	–
ACAGACGAAGGAGCCGCAACGAAGTTATTAAGGGATGAATAATCCCTCAATATAAATATCTCTCACTTATTTAAA	0.915	–	cleaved RNA product abundance [1]: 0.908; cleaved RNA product abundance [4]: 0.595
ACAGACGAAGGAGCCGCAAAGAAGTTATTAATGAATGAATAAACCCTCAATATAAATATCTCTCACTTATTTAAA	0.133	–	–
ACAGACGAAGGAGCCGCAAAGAAGTTATTAAGGTAAGAATAATCCCTCAATATAAATATCTCTCACTTATTTAAA	0.0843	–	–
ACAGACGAAGGAGCCGCAAAGAAGTTATTAAGAGATGAGTAATCCCTCAATATAAATATCTCTCACTTATTTAAA	0.241	–	–
ACAGACGAAGGAGCCGCAAAGAAGTTATTAAGGGAAGCATAATCCCTCAATATAAATATCTCTCACTTATTTAAA	0.551	–	–
ACAGACGAAGGAGCCGCAAAGAAGTTATTAAGGAATGAGTAATCCCTCAATATAAATATCTCTCACTTATTTAAA	0.131	–	cleaved RNA product abundance [1]: 0.119

Sequence	cleaved RNA product abundance [2]	cleaved RNA product abundance [3]	further results
ACAGACGAAGGAGCCGCAAAGAAGTTATCAAGGGATGAATAATCCCTCAATATAAATATCTCTCACTTATTTAAA	0.385	–	cleaved RNA product abundance [1]: 0.27; cleaved RNA product abundance [4]: 0.34
CGACATGTCCCGCTTCTTTCATTAATCCGTTTGCACCTGTTTTGCTATATACATTTACCTTTTAAGAGGAGGAAT	–	0.295	–
ACAGACGAAGGAGCCGCAAAGAAGTCATTAAGTGATGAATAATCCCTCAATATAAATATCTCTCACTTATTTAAA	0.0976	–	–
ACAGACGAAGGAGCCGCAAAGAAGTTATTAACGGATGAATAATCCCTCAATATAAAAATCTCTCACTTATTTAAA	0.116	–	cleaved RNA product abundance [1]: 0.156
ACAGACGAAGGAGCCGCAAAGAAGTTATTAAGGGATGTATAATCCCTCAATATATATATCTCTCACTTATTTAAA	–	–	cleaved RNA product abundance [1]: 0.631
ACAGACGAAGGAGCCGCAAAGAAGTTATTAAGAGATGAATAATCCATCAATATAAATATCTCTCACTTATTTAAA	0.19	–	cleaved RNA product abundance [1]: 0.142
ACAGACGAAGGAGCCGCTAAGAAGTTATTAAGGGATGAATAATCCCTCTATATAAATATCTCTCACTTATTTAAA	0.509	–	–
CGACATGTCCCGCTTCTTTCATTAATCCGTTTGCAACTGTTTTGCTATATACATTTACCTTTTAAGAGGAGGAAT	–	0.549	–
ACAGACGAAGGAGCCGCAAAGAAGTTATTAAGGGATAAATAATCCCTCAATATAAATAACTCTCACTTATTTAAA	0.823	–	–
ACAGACGAAGGAGCCGCAAAGAAGTTATTAAGGGATGAATAATCCCTAAAAATAAATATCTCTCACTTATTTAAA	0.423	–	cleaved RNA product abundance [1]: 0.213
CGACATGTCCCGCTTCTTTCATTAATCCGTTAGCAACTGTTTTGAAATATACATTTACCTTTTAAGAGGAGGAAT	–	0.462	–
ACAGACGAAGGAGCCGCAAACAATTTATTAAGGGATGAATAATCCCTCAATATAAATATCTCTCACTTATTTAAA	0.756	–	–
ACAGACGAAGGAGCCGCAAAGAAGTTATTAAGGGATTAATAATCCCACAATATAAATATCTCTCACTTATTTAAA	0.347	–	cleaved RNA product abundance [1]: 0.238
ACAGACGAAGGAGCCGCAAAGAAGTTATTAAGTGATGAATAATCCCTCAATAAAAATATCTCTCACTTATTTAAA	0.0655	–	cleaved RNA product abundance [4]: 0.11
CGACATGTCCCGCTTCTTTCATTAATCCGTTAGTAACTTTTTTGCTATATACATTTACCTTTTAAGAGGAGGAAT	–	0.636	–
CGACATGTCCCGCTTCTTTCATTATTCCGTTAGCAACTGTTTTGCTATATACATTTACCTTTTAAGAGGAGGAAT	–	1.42	–
ACAGACGAAGGAGCCGCAAAGAAGTTATCAAGGGATAAATAATCCCTCAATATAAATATCTCTCACTTATTTAAA	0.234	–	–
ACAGACGAAGGAGCCGCAAAGAAGTTACTAAGGGATGAATACTCCCTCAATATAAATATCTCTCACTTATTTAAA	–	–	cleaved RNA product abundance [1]: 0.107
ACAGACGAAGGAGCCGCAAAGAAGTTATTAATGTATGAATAATCCCTCAATATAAATATCTCTCACTTATTTAAA	0.1	–	cleaved RNA product abundance [1]: 0.101
ACAGACGAAGGAGCCGCGAAGAAGTTATTAAGGTATGAATAATCCCTCAATATAAATATCTCTCACTTATTTAAA	0.143	–	cleaved RNA product abundance [1]: 0.117
ACAGACGAAGGAGCCGCAAATACGTTATTAAGGGATGAATAAACCCTCAATATAAATATCTCTCACTTATTTAAA	0.383	–	–

Sequence	cleaved RNA product abundance [2]	cleaved RNA product abundance [3]	further results
ACAGACGAAGGAGCCGCAAAGAAGTTATTAAGGGATAAATAATCACTCAATATAAATATCTCTCACTTATTTAAA	0.104	–	cleaved RNA product abundance [1]: 0.0853
ACAGACGAAGGAGCCGCTAAGAATTTATTAAGGGATGAATAATCCCTCAATATAAATATCTCTCACTTATTTAAA	0.468	–	–
CGACATGTCCCGCTTCTTTCATTAATCCGTTACCAACTGTTTTTCTATATACATTTACCTTTTAAGAGGAGGAAT	–	0.234	–
CGACATGTCCCGCTTCTTTCATTAATCCGTTATCAACTTTTTTGCTATATACATTTACCTTTTAAGAGGAGGAAT	–	0.387	–
ACAGACGAAGGAGCCGCAAAGAAGTTATTAAGGGACGAATAATCCCTAAATATAAATATCTCTCACTTATTTAAA	0.287	–	–
ACAGACGAAGGAGCCGCCAAGAAATTATTAAGGGATGAATAATCCCTCAATATAAATATCTCTCACTTATTTAAA	0.549	–	–
ACAGACGAAGGAGCCGCAAAGAATTTATTAAGGGATGAATAATCCCTCAATATAAAAATCTCTCACTTATTTAAA	0.532	–	–
ACAGACGAAGGAGCCGCAAAGAAGTTATTAAGGGATGAATAATACCTCATTATAAATATCTCTCACTTATTTAAA	0.117	–	–
ACAGACGAAGGAGCCGCAAAGAAGTTATTAAGCGATTAATAATTCCTCAATATAAATATCTCTCACTTATTTAAA	0.0664	–	–
CGACATGTCCCGCTTCTTTCATTAATCCGTTAGCAACTGTTTTGCTATATACATTTAGGTTTTAAGAGGAGGAAT	–	0.86	–
CGACATGTCCCGCTTCTTTCATTATTCCGTTAGCAACTGTTTTGCTATCTACATTTACCTTTTAAGAGGAGGAAT	–	0.167	–
ACAGACGAAGGAGCCGCAAAGAAGTTATTAAGGGATGAATAAGCCCTCAAGATAAATATCTCTCACTTATTTAAA	0.176	–	–
CGACATGTCCCGCTTCTTTCATTAATCCGTTAGCAACTGATTTGCTATATACATATACCTTTTAAGAGGAGGAAT	–	1	–
ACAGACGAAGGAGCCGCAAATTAGTTATTAAGGGATGAAAAATCCCTCAATATAAATATCTCTCACTTATTTAAA	0.655	–	–
ACAGACGAAGGAGCCGCAAAGAAGTTATTAAGGGATGAATAATCCCTCAATATAAATATCACTCACTTATTTAAA	0.917	–	–
CGACATGTCCCGCTTCTTTCATTAATCCGTTAGCATCTGTTTTCCTATATACATTTACCTTTTAAGAGGAGGAAT	–	0.524	–
CGACATGTCCCGCTTCTTTCATTAATCCGTTAGCAACTGTTTTGCTAGATACATATACCTTTTAAGAGGAGGAAT	–	0.781	–
ACAGACGAAGGAGCCGCAAAGAAGTTAATAAGGGATGAATAAACCCTCAATATAAATATCTCTCACTTATTTAAA	0.177	–	cleaved RNA product abundance [1]: 0.167
ACAGACGAAGGAGCCGCAAAGAAGTTATTAAGGTATGAATAATCCCTCAATATAGATATCTCTCACTTATTTAAA	0.08	–	–
